The results in this text go back to PMC3783163, “Attachment site recognition and regulation of directionality by the serine integrases”.

Data set [1] concerns LI integrase WT (Listeria innocua prophage (CLIP 11262; cloned from ATCC BAA-680D genomic DNA)). Kind of data set: EMSA. The conditions noted are these: EMSA: 20 mM Tris-HCl pH 7.4, 150 mM KCl, 2 mM DTT, 25 ug/ml BSA, 25 ug/ml salmon sperm DNA, 5% glycerol, ~1 nM DNA, 30 min at 30 C; 6% PAGE Tris-glycine pH …. On the technique in general: In EMSA bound probe runs differently from free probe, usually more slowly.

In data set [2] the test system is LI integrase ΔZD (Listeria innocua prophage (CLIP 11262; cloned from ATCC BAA-680D genomic DNA)). Nature of the data set: EMSA. Particulars: EMSA: 20 mM Tris-HCl pH 7.4, 150 mM KCl, 2 mM DTT, 25 ug/ml BSA, 25 ug/ml salmon sperm DNA, 5% glycerol, ~1 nM DNA, 30 min at 30 C; 6% PAGE Tris-glycine pH ….
Data set [3] has as its target T1, LI integrase CTD (Listeria innocua prophage (CLIP 11262; …, UniProt Q928V6 133-452).
T1 sequence: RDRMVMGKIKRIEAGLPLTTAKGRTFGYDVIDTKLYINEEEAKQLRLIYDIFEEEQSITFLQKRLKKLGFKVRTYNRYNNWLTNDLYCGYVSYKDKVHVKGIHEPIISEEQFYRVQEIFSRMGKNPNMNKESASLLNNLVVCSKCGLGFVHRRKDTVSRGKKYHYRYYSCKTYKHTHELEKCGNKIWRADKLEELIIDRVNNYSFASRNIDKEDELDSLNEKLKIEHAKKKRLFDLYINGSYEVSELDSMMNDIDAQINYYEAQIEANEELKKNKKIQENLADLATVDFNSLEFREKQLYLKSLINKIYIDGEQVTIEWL
Kind of data set: crystal structure (3.2 A); Zn2+ bound; 13 mM CaCl2 in drop; EMSA: 20 mM Tris-HCl pH 7.4, 150 mM KCl, 2 mM DTT, 25 ug/ml BSA, 25 ug/ml salmon sperm DNA, 5% glycerol, ~1 nM DNA, 30 min at 30 C; 6% PAGE Tris-glycine pH 8.3. Particulars: protein: recombinant; tags: C-terminal His6 (LEH6); 5' overhangs 1 nt (G top, C bottom), 25 bp duplex.

One may read the Kd as a measure of binding affinity in units of concentration. A lower Kd goes with higher affinity.

As for LI attB 119-bp probe, the Kd in data set [1] was determined as 20 nM. Moreover, the binding signal (fold weaker than WT) in data set [2] worked out at 25.
With LI attP 119-bp probe, in data set [1], the Kd turned out to be 20 nM. In data set [2], this molecule showed a binding signal (fold weaker than WT) of 25.

B1: A118 attP P-arm half-site (crystal) (dsDNA)
DNA 1: GTTTAGTTCCTCGTTTTCTCTCGTTG
DNA 2: CCAACGAGAGAAAACGAGGAACTAAA
Consider B1, for which the binding result in data set [3] is reported as “binds”.
